Laboratory results: patent US20250116035, “A METHOD FOR REPRODUCIBLE APTAMER SELECTION USING CLOSED SEQUENCE SOLUTION SPACES” (NEOVENTURES BIOTECHNOLOGY INC., published 2025)

B1: fBIgG-2 (ssDNA)
DNA: CCAGATACAGACCCGAGGTGAGAATTTCAACCATCGGCGCCAACAAAACATTCTCTCAGATACAGTAGACAGC
modifications: 5' thiol (immobilized on gold)

What was measured:
[1] = test system: immunoglobulin G (IgG), pooled; experiment: SPR; conditions: 5' thiol (immobilized on gold); SPR imaging, aptamer immobilized on gold chip; IgG 250 nM; ka 3.69E5, kd 7.56E-3
[2] = target: human serum albumin (HSA) (Homo sapiens, UniProt P02768 P02768:25-609); experiment: SPR; counter-target; 250 nM HSA; aptamer described as selected to bind IgG and not HSA; curve only in figure
Sequence of human serum albumin (HSA) (P02768 25-609, one chain of several): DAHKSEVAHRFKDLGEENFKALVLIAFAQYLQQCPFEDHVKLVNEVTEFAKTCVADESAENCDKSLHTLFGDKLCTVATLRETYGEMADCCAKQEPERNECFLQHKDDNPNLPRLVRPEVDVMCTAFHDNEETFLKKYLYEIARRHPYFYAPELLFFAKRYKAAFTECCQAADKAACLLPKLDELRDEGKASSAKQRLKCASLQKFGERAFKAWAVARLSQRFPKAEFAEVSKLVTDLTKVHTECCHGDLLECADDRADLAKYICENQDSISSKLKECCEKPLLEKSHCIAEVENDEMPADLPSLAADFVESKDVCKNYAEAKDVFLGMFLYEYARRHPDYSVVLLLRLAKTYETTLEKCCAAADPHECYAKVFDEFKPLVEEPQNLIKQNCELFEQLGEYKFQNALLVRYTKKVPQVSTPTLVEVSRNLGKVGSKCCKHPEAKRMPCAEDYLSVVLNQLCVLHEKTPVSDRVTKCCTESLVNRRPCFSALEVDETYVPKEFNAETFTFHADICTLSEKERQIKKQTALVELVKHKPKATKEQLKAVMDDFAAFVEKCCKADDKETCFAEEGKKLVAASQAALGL
Procedure: These sequences were synthesized with a 5′ thiol and immobilized onto a gold surface in triplicate spots at a concentration of 5 uM in a volume of 10 nL. A negative aptamer of the same length not selected for binding to serum albumin was also spotted on the gold chips in the same manner. These were allowed to dry, and the remainder of the surface was blocked with thiolylated polyethylene glycol with an average molecular weight of 5 kda. The gold chips were then inserted on top of a glass prism in a Horiba Openplex Surface Plasmon Resonance imaging instrument (SPRi). Human serum albumin at two concentrations (100 nM and 250 nM) was injected over the chip at a volume of 200 uL and a flow rate of 50 uL/min. We also injected a pool of immunoglobulin (IgG) at a concentration of 250 nM at the same volume and flow rates.
Binding analysis for the selected IgG sequences was performed in a manner identical to that described for the HSA sequences.

Row | Molecule | Kd [1] [nM] | binding result [2]
1 | CCAGATACAGACCCGAGGTGAGAATTTCAACCATCGGCGCCAACAAAACATTCTCTCAGATACAGTAGACAGC [fBIgG-2] | 20.5 | –
2 | B1 | – | no binding
